Patent US20250262210A1 (TRUSTEES OF COLUMBIA UNIVERSITY IN THE CITY OF NEW YORK, published 2025)

Legend:
Assay in all cases: IP/MS, LZTR1 R810W-FLAG, U87
FKBP15 = biological target: T1, FKBP15 (human, UniProt Q5T1M5 1-1219, limits assumed)
T1 sequence (looked up): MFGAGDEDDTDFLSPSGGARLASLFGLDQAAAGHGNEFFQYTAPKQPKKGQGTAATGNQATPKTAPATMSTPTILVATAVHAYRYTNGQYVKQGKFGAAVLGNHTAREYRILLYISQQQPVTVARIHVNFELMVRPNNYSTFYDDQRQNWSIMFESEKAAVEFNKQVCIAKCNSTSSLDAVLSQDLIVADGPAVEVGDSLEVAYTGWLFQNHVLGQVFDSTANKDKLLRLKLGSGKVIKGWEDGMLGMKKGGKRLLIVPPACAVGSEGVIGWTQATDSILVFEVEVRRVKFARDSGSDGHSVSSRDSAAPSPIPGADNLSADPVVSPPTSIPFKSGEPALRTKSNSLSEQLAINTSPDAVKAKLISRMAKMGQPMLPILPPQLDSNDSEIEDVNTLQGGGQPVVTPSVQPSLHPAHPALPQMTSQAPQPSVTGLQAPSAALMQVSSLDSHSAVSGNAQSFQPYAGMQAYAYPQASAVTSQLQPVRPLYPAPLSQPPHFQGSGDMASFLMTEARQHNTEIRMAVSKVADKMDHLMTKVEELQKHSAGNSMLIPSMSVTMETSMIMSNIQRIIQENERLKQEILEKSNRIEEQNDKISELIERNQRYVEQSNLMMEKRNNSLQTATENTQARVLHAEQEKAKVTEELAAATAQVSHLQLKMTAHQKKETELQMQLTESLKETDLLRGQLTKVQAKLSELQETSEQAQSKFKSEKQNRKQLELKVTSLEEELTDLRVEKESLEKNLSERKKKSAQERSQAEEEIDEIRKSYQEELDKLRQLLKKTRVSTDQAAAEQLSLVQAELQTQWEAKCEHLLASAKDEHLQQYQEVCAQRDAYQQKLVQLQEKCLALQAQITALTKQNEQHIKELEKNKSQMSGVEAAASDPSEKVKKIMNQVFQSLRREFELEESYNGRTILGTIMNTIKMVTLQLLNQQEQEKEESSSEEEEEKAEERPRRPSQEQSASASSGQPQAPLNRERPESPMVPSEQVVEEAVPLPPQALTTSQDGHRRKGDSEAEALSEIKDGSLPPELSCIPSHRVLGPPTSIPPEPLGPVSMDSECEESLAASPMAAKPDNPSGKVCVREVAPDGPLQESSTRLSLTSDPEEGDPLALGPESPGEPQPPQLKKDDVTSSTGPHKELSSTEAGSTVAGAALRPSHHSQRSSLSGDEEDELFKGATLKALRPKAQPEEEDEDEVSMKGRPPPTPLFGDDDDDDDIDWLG
Summary of the method: (§1)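 Extracted peptides in 3% acetonitrile/0.1% formic acid ran on a 50 cm C18 column into an Orbitrap Fusion, with MaxQuant identification and spectral counting.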

EIF2AK4 = EIF2AK4 (human, UniProt Q9P2K8 1-1649, limits assumed)
Chain of EIF2AK4 (Q9P2K8 whole entry): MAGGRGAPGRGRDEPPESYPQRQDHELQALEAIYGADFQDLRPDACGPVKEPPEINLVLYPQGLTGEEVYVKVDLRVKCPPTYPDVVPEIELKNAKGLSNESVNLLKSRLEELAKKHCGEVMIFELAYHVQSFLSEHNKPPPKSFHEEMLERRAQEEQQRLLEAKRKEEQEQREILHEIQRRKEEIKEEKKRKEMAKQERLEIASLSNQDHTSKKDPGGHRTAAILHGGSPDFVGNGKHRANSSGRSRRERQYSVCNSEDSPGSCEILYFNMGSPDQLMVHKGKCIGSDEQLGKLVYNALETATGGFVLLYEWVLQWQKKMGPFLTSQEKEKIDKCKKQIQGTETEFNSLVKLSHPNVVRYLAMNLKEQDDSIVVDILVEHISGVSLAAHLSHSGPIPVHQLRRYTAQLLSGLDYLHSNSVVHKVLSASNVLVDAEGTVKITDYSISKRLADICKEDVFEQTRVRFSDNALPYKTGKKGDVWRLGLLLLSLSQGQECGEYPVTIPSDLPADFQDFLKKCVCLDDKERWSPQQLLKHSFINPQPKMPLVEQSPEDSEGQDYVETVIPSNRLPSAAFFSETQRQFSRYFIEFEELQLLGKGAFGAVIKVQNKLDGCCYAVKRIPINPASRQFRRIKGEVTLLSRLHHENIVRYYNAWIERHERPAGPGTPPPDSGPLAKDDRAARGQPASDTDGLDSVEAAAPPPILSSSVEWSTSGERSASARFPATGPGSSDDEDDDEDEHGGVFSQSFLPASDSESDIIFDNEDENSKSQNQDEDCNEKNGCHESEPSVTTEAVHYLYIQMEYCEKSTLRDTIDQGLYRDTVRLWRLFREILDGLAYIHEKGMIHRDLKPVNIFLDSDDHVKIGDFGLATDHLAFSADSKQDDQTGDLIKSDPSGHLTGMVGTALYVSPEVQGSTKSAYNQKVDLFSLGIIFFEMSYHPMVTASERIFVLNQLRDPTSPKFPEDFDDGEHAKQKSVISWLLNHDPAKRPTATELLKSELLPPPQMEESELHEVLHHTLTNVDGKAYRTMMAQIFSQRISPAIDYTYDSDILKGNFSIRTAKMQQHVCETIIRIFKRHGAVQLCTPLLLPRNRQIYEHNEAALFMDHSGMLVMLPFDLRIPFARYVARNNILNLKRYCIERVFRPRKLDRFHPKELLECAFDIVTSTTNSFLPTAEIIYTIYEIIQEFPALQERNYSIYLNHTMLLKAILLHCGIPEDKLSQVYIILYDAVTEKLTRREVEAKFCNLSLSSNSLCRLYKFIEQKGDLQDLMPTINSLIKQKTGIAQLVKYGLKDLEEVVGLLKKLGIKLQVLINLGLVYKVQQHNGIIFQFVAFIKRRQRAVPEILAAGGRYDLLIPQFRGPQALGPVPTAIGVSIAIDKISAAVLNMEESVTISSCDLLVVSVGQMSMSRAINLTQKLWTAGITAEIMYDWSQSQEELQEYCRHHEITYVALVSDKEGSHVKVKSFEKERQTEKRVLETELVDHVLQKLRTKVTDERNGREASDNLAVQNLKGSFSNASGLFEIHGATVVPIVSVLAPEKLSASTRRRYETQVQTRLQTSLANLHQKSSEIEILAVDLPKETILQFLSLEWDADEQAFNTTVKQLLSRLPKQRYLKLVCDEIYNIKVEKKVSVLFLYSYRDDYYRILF
Summary of the method: as §1

MTOR = MTOR (human, UniProt P42345 1-2549)
Summary of the method: as §1

Measured: binding result

B1: LZTR1 R810W-FLAG (other, human, UniProt Q8N653 1-840, looked up)
chain: MAGPGSTGGQIGAAALAGGARSKVAPSVDFDHSCSDSVEYLTLNFGPFETVHRWRRLPPCDEFVGARRSKHTVVAYKDAIYVFGGDNGKTMLNDLLRFDVKDCSWCRAFTTGTPPAPRYHHSAVVYGSSMFVFGGYTGDIYSNSNLKNKNDLFEYKFATGQWTEWKIEGRLPVARSAHGATVYSDKLWIFAGYDGNARLNDMWTIGLQDRELTCWEEVAQSGEIPPSCCNFPVAVCRDKMFVFSGQSGAKITNNLFQFEFKDKTWTRIPTEHLLRGSPPPPQRRYGHTMVAFDRHLYVFGGAADNTLPNELHCYDVDFQTWEVVQPSSDSEVGGAEVPERACASEEVPTLTYEERVGFKKSRDVFGLDFGTTSAKQPTQPASELPSGRLFHAAAVISDAMYIFGGTVDNNIRSGEMYRFQFSCYPKCTLHEDYGRLWESRQFCDVEFVLGEKEECVQGHVAIVTARSRWLRRKITQARERLAQKLEQEAAPVPREAPGVAAGGARPPLLHVAIREAEARPFEVLMQFLYTDKIKYPRKGHVEDVLLIMDVYKLALSFQLCRLEQLCRQYIEASVDLQNVLVVCESAARLQLSQLKEHCLNFVVKESHFNQVIMMKEFERLSSPLIVEIVRRKQQPPPRTPLDQPVDIGTSLIQDMKAYLEGAGAEFCDITLLLDGHPRPAHKAILAARSSYFEAMFRSFMPEDGQVNISIGEMVPSRQAFESMLRYIYYGEVNMPPEDSLYLFAAPYYYGFYNNRLQAYCKQNLEMNVTVQNVLQILEAADKTQALDMKRHCLHIIVHQFTKVSKLPTLWSLSQQLLLDIIDSLASHISDKQCAELGADI
notes: Stably expressed in U87 cells by lentivirus; also called LZTR1-FLAG-R810W; LZTR1 RW; not shown: FLAG tag
binds: all assays above
